Biological target: recombinant full-length USP7 (UniProt Q93009 1-1102)
Assay: co-IP

Chain of recombinant full-length USP7 (Q93009 whole entry): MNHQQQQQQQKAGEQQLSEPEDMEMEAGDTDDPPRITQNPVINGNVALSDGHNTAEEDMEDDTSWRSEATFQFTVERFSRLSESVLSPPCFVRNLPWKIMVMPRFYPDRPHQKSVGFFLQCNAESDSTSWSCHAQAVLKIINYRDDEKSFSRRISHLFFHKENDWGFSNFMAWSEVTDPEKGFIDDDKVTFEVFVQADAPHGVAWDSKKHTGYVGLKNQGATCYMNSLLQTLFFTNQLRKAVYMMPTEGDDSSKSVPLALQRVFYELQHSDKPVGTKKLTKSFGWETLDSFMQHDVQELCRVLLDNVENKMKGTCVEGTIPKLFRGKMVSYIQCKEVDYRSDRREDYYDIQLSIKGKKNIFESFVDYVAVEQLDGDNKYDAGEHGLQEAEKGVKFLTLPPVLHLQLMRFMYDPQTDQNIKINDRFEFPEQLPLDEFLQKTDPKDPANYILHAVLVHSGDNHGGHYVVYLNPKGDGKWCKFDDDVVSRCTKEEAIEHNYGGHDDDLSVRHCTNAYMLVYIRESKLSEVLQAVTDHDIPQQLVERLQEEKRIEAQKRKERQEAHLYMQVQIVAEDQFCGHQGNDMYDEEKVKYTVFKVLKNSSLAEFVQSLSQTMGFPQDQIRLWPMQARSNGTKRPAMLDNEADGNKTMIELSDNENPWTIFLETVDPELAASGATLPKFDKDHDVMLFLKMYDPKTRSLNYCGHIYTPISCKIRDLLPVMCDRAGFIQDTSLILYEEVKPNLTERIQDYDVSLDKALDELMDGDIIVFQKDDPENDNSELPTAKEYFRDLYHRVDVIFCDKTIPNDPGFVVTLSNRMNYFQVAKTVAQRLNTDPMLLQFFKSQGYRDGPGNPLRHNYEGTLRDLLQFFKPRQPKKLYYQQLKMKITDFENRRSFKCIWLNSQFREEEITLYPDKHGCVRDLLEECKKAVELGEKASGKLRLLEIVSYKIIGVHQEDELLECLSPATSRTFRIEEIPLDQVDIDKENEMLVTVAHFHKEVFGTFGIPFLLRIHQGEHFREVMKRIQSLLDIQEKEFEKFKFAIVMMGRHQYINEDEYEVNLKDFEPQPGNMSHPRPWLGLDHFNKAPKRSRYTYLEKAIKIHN

B1: recombinant full-length UHRF1 (natural protein)
chain: MWIQVRTMDGRQTHTVDSLSRLTKVEELRRKIQELFHVEPGLQRLFYRGKQMEDGHTLFDYEVRLNDTIQLLVRQSLVLPHSTKERDSELSDTDSGCCLGQSESDKSSTHGEAAAETDSRPADEDMWDETELGLYKVNEYVDARDTNMGAWFEAQVVRVTRKAPSRDEPCSSTSRPALEEDVIYHVKYDDYPENGVVQMNSRDVRARARTIIKWQDLEVGQVVMLNYNPDNPKERGFWYDAEISRKRETRTARELYANVVLGDDSLNDCRIIFVDEVFKIERPGEGSPMVDNPMRRKSGPSCKHCKDDVNRLCRVCACHLCGGRQDPDKQLMCDECDMAFHIYCLDPPLSSVPSEDEWYCPECRNDASEVVLAGERLRESKKKAKMASATSSSQRDWGKGMACVGRTKECTIVPSNHYGPIPGIPVGTMWRFRVQVSESGVHRPHVAGIHGRSNDGAYSLVLAGGYEDDVDHGNFFTYTGSGGRDLSGNKRTAEQSCDQKLTNTNRALALNCFAPINDQEGAEAKDWRSGKPVRVVRNVKGGKNSKYAPAEGNRYDGIYKVVKYWPEKGKSGFLVWRYLLRRDDDEPGPWTKEGKDRIKKLGLTMQYPEGYLEALANREREKENSKREEEEQQEGGFASPRTGKGKWKRKSAGGGPSRAGSPRRTSKKTKVEPYSLTAQQSSLIREDKSNAKLWNEVLASLKDRPASGSPFQLFLSKVEETFQCICCQELVFRPITTVCQHNVCKDCLDRSFRAQVFSCPACRYDLGRSYAMQVNQPLQTVLNQLFPGYGNGR
binding result: binds

— article PMC3201865 (Nucleic Acids Research, 2011)
